Measured values reported in patent US20210403582A1 (JACOBIO PHARMACEUTICALS, published 2021).

Tests used:
[1] = molecular target: T1, human LIF protein (human, UniProt P15018 23-202); assay: ELISA, antigen coated 0.5 ug/ml, 293S supernatant non-heated, antibody 1 ug/mL
T1 construct: Bought recombinant protein (Sino Biological / Yiqiao Shenzhou 14890-HNAH) in most assays; also called recombinant human LIF protein; rhLIF
Description: (§1) Each well was coated with 100 μL of 0.5 μg/ml antigen and incubate overnight at 4° C., and the plates were washed three times with 300 μL of Wash Buffer. The plates were closed with 200 μL of Closure Buffer (2% bovine serum albumin) for 60 min at room temperature. The plates were washed three times with 300 μL of Wash Buffer. 100 μL of diluted anti-LIF antibody at different concentrations was added to each well and incubate for 1 hour at room temperature. The plates were washed 4 times with 300 μL of Wash Buffer. 100 μL of HRP-labeled goat anti-human Fc secondary antibody at a dilution of 1:5000 was added and incubate for 1 hour at room temperature. The plates were washed 6 times with 300 μL of Wash Buffer. 100 μL of H₂O₂-Amplx Color Development Solution was added for developing the color for 10 min at room temperature under dark conditions. The OD 450 value was read by an enzyme marker. Heat treatment: the expression medium was heated on the PCR machine at 70° C. for 5 min and then rapidly cooled to room temperature. Perform subsequent ELISA assays as above.

[2] = molecular target: T1, human LIF protein; assay: ELISA, antigen coated 0.5 ug/ml, 293S supernatant heated 70 C 5 min, antibody 0.2 ug/mL
Description: as §1

[3] = molecular target: T1, human LIF protein; assay: ELISA, antigen coated 0.5 ug/ml, 293S supernatant heated 70 C 5 min, antibody 1 ug/mL
Description: as §1

[4] = molecular target: T1, human LIF protein; assay: ELISA, antigen coated 0.5 ug/ml, 293S supernatant heated 70 C 5 min, antibody 0.04 ug/mL
Description: as §1

[5] = molecular target: T1, human LIF protein; assay: ELISA, antigen coated 0.5 ug/ml, 293S supernatant non-heated, antibody 0.04 ug/mL
Description: as §1

[6] = molecular target: T1, human LIF protein; assay: ELISA, antigen coated 0.5 ug/ml, 293S supernatant non-heated, antibody 0.2 ug/mL
Description: as §1

[7] = molecular target: T1, human LIF protein; assay: ELISA (heated), antibody kept at 70 °C for 5 min before the ELISA, antigen coated at 0.5 µg/mL
[8] = molecular target: T1, human LIF protein; assay: ELISA (non-heated), purified IgG on antigen coated at 0.5 µg/mL, 3-fold dilutions
[9] = molecular target: T1, human LIF protein; assay: BLI (Gator), antibody on anti-human Fc biosensor, human LIF in solution
Description: The affinity of anti-LIF antibody to human LIF protein was determined using Gator. The anti-human LIF antibody was first diluted to 5 ug/mL with PBS and then added to A-F wells in second column of the 96-well plate (200 μL per well). […] PBS was added to A-F wells in the first and third columns (200 μL per well). The 96-well plates were placed into the instrument and detected with anti-human Fc biosensor.

T1 sequence (P15018 23-202 limits assumed): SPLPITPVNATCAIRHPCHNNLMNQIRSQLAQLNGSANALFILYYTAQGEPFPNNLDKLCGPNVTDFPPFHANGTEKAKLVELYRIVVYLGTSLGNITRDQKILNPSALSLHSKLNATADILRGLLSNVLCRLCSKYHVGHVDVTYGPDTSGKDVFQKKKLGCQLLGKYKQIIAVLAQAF

ELISA signal [1] | ELISA signal [2] | ELISA signal [3] | ELISA signal [4] | ELISA signal [5] | ELISA signal [6] | EC50 (read off the curve) [7] [µg/mL] | EC50 (read off the curve) [8] [µg/mL] | Kd [9] [pM] | koff [9] [s⁻¹] | kon [9] [M⁻¹ s⁻¹] | Binder
11700 | 8720 | 9780 | 5260 | 6520 | 10300 |  |  |  |  |  | H2L2 (antibody, human IgG1, kappa, Humanized, human IgG1 / kappa) heavy: not shown light: DIHMTQSPSSLSASVGDRVTITCRASENIYSYLAWYQQKPGKSPKLLVYNAKTLAEGVPSRFSGSGSGTDFTLTISSLQPEDFATYYCQHHYVTPLTFGQGTKLEIKRTVAAPSVFIFPPSDEQLKSGTASVVCLLNNFYPREAKVQWKVDNALQSGNSQESVTEQDSKDSTYSLSSTLTLSKADYEKHKVYACEVTHQGLSSPVTKSFNRGEC
11400 | 7900 | 9130 | 5190 | 6220 | 10000 |  |  |  |  |  | H3L1 (antibody, human IgG1, kappa, N297A, Humanized, human IgG1 / kappa) heavy: not shown light: DIQMTQSPSSLSASVGDRVTITCRASENIYSYLAWYQQKPGKSPKLLVYNAKTLAEGVPSRFSGSGSGTDFTLTISSLQPEDFATYYCQHHYVTPLTFGQGTKLEIKRTVAAPSVFIFPPSDEQLKSGTASVVCLLNNFYPREAKVQWKVDNALQSGNSQESVTEQDSKDSTYSLSSTLTLSKADYEKHKVYACEVTHQGLSSPVTKSFNRGEC
12000 | 8560 | 9650 | 5440 | 6370 | 10700 |  |  |  |  |  | H2L1 (antibody, human IgG1, kappa, Humanized, human IgG1 / kappa) heavy: not shown light: DIQMTQSPSSLSASVGDRVTITCRASENIYSYLAWYQQKPGKSPKLLVYNAKTLAEGVPSRFSGSGSGTDFTLTISSLQPEDFATYYCQHHYVTPLTFGQGTKLEIKRTVAAPSVFIFPPSDEQLKSGTASVVCLLNNFYPREAKVQWKVDNALQSGNSQESVTEQDSKDSTYSLSSTLTLSKADYEKHKVYACEVTHQGLSSPVTKSFNRGEC
11900 | 9700 | 10500 | 5670 | 7320 | 10900 | ~0.3 | ~0.07 |  |  |  | 38E HuH1L4 (antibody, human IgG1, kappa, N297A, V domains shown, Humanized, human IgG1 / kappa) VH: EVMLLESGGGLVQPGGSLRLSCAASGFIFSSYAMSWVRQAPGTGLEWVATISSGGSNTYSPDTVKGRFTISRDNSKNTLYLQMNSLRAEDTAVYYCARYYGYYFDFWGQGTLLTVSS VL: DIHMTQSPSSLSASVGDRVTITCRASENIYSYLAWYQQKQGKSPQLLVYNAKTLAEGVPSRFSGSGSGTQFTLKINSLQPEDFATYYCQHHYVTPLTFGQGTKLEIKR
11800 | 9230 | 10600 | 5700 | 6880 | 10900 | ~0.3 | ~0.07 |  |  |  | 38E HuH2L4 (antibody, human IgG1, kappa, V domains shown, Humanized, human IgG1 / kappa) VH: EVMLVESGGGLVQPGGSLRLSCAASGFIFSSYAMSWVRQAPGTGLEWVATISSGGSNTYSPDTVKGRFTISRDNSKNTLYLQMNSLRAEDTAMYYCARYYGYYFDFWGQGTLLTVSS VL: DIHMTQSPSSLSASVGDRVTITCRASENIYSYLAWYQQKQGKSPQLLVYNAKTLAEGVPSRFSGSGSGTQFTLKINSLQPEDFATYYCQHHYVTPLTFGQGTKLEIKR
11800 | 8750 | 9630 | 4980 | 6440 | 10800 |  |  |  |  |  | H1L3 (antibody, human IgG1, kappa, N297A, V domains shown, Humanized, human IgG1 / kappa) VH: EVMLLESGGGLVQPGGSLRLSCAASGFIFSSYAMSWVRQAPGTGLEWVATISSGGSNTYSPDTVKGRFTISRDNSKNTLYLQMNSLRAEDTAVYYCARYYGYYFDFWGQGTLLTVSS VL: DIHMTQSPSSLSASVGDRVTITCRASENIYSYLAWYQQKPGKSPQLLVYNAKTLAEGVPSRFSGSGSGTQFTLTISSLQPEDFATYYCQHHYVTPLTFGQGTKLEIKR
11300 | 8900 | 9540 | 5390 | 6760 | 11000 |  |  |  |  |  | H3L3 (antibody, human IgG1, kappa, N297A, V domains shown, Humanized, human IgG1 / kappa) VH: EVMLVESGGGLVQPGGSLRLSCAASGFIFSSYAMSWVRQAPETRLEWVATISSGGSNTYSPDTVKGRFTISRDNSKNTLYLQMNSLRAEDTAMYYCARYYGYYFDFWGQGTLLTVSS VL: DIHMTQSPSSLSASVGDRVTITCRASENIYSYLAWYQQKPGKSPQLLVYNAKTLAEGVPSRFSGSGSGTQFTLTISSLQPEDFATYYCQHHYVTPLTFGQGTKLEIKR
11800 | 9010 | 9800 | 5970 | 6850 | 10600 | ~0.1 | ~0.07 | 81.7 | 4.65e-05 | 569000 | 38E HuH1L1 (antibody, human IgG1, kappa, N297A, Humanized, human IgG1 / kappa) heavy: not shown light: DIQMTQSPSSLSASVGDRVTITCRASENIYSYLAWYQQKPGKSPKLLVYNAKTLAEGVPSRFSGSGSGTDFTLTISSLQPEDFATYYCQHHYVTPLTFGQGTKLEIKRTVAAPSVFIFPPSDEQLKSGTASVVCLLNNFYPREAKVQWKVDNALQSGNSQESVTEQDSKDSTYSLSSTLTLSKADYEKHKVYACEVTHQGLSSPVTKSFNRGEC
12000 | 9150 | 9730 | 4870 | 6270 | 11300 |  |  |  |  |  | H2L3 (antibody, human IgG1, kappa, V domains shown, Humanized, human IgG1 / kappa) VH: EVMLVESGGGLVQPGGSLRLSCAASGFIFSSYAMSWVRQAPGTGLEWVATISSGGSNTYSPDTVKGRFTISRDNSKNTLYLQMNSLRAEDTAMYYCARYYGYYFDFWGQGTLLTVSS VL: DIHMTQSPSSLSASVGDRVTITCRASENIYSYLAWYQQKPGKSPQLLVYNAKTLAEGVPSRFSGSGSGTQFTLTISSLQPEDFATYYCQHHYVTPLTFGQGTKLEIKR
12100 | 8920 | 9830 | 5490 | 6680 | 11200 |  |  |  |  |  | H1L2 (antibody, human IgG1, kappa, N297A, Humanized, human IgG1 / kappa) heavy: not shown light: DIHMTQSPSSLSASVGDRVTITCRASENIYSYLAWYQQKPGKSPKLLVYNAKTLAEGVPSRFSGSGSGTDFTLTISSLQPEDFATYYCQHHYVTPLTFGQGTKLEIKRTVAAPSVFIFPPSDEQLKSGTASVVCLLNNFYPREAKVQWKVDNALQSGNSQESVTEQDSKDSTYSLSSTLTLSKADYEKHKVYACEVTHQGLSSPVTKSFNRGEC
11400 | 8840 | 10600 | 4730 | 6780 | 10400 |  | ~0.07 | 23.3 | 1.57e-05 | 677000 | 38E10E1C11 chimeric antibody (antibody, human IgG1, kappa, Mouse variable regions of 38E10E1C11 with human IgG1 / kappa constant regions; also called 38E Chimeric; 38E chimeric antibody) heavy: not shown light: DIHMTQSPASLSASVGETVTITCRASENIYSYLAWYQQKQGKSPQLLVYNAKTLAEGVPSRFSGSGSGTQFSLKINSLQPEDFGSYYCQHHYVTPLTFGAGTKLELKRTVAAPSVFIFPPSDEQLKSGTASVVCLLNNFYPREAKVQWKVDNALQSGNSQESVTEQDSKDSTYSLSSTLTLSKADYEKHKVYACEVTHQGLSSPVTKSFNRGEC
